In patent publication US20050277575A1, “Therapeutic compositions and methods for treating diseases that involve angiogenesis” (priority 2004, published 2005):

How the values were obtained:
[1] = molecular target: T1, t-PA-mediated plasminogen activation (Homo sapiens, UniProt P00750); test: t-PA-dependent conversion of plasminogen to plasmin, effect of S100A4 (Example 11); format: biochemical
T1 construct: purchased Calbiochem
Description: Non-active plasminogen can be converted to active protease plasmin by tissue type (t-PA) or urokinase type (u-PA) plasminogen activators. Except for its well-known fibrinolytic activity, plasmin also directly and indirectly, by activation of matrix metalloproteinases (MMPs), participates in the degradation of extracellular matrix that is important for the angiogenesis and tumor invasion. The kinetics of t-PA-mediated plasminogen activation was determined by measuring amidolytic activity of the plasmin generated during plasminogen activation. The reaction was performed with the plasmin substrate Chromozyme PL, tosyl-glycyl-prolyl-lysin-4-nitranilide-acetate (Roche) in the final concentration of 125 μM in a buffer consisting of 50 mM Tris-HCl, pH 7.4, 100 mM NaCl, 5 mM of CaCl2 or 5 mM of EGTA, and 150 nM of [Glu] plasminogen (Calbiochem). The reaction was preincubated with or without 2.5 μM S100A4 at 24 C° for 1 h in 96-well plates. The reaction was initiated by addition of t-PA (Calbiochem) up to 5 nM concentration, final volume 100 μl. Kinetic of substrate hydrolysis was measured at 2 min intervals at 405 nm in Spectramax Plus 384 spectrophotometer (Molecular Devices). Analysis of kinetics curves (Vmax, time to Vmax, and initial slope of kinetic data converted to A405 versus time^2) was performed with the help of Softmax PRO program (Molecular Devices).
Kinetics of plasminogen to plasmin conversion consists of three parts. As shown in FIG. #3 curves 1 and 2 for t-PA, during first 1500 s the reaction is second order that corresponds to conversion of plasminogen to plasmin and consequent cleavage of chromogenic substrate by plasmin. The second part of reaction is linear, for which Vmax can be calculated. It starts after total conversion of plasminogen to plasmin and corresponds to cleavage of chromogenic substrate by plasmin with constant rate. In the third part of reaction, after 2700 s, the reaction is slowing down that corresponds to depletion of chromogenic substrate and finally the reaction reaches a plateau when all substrate is cleaved. As follows from the comparison of curves 1 and 2, t-PA along converted plasminogen to plasmin equally efficiently in the presence or absence of calcium. Neither conversion of plasminogen to plasmin took place in the absence of t-PA no S110A4 induced such conversion by itself, curves 5 and 6. In the presence of S100A4 linear part of reaction starts substantially earlier, which means that total conversion of plasminogen to plasmin was accelerated. Kinetic parameters for t-PA along and for combination of t-PA with S100A4 are represented in Table 4. […] S100A4 accelerated conversion of plasminogen to plasmin in calcium independent manner, curves 3 and 4.

annexin II = molecular target: T2, annexin II (Homo sapiens, UniProt P07355); test: Immunoprecipitation analysis of S100A4-annexin II complex formation; format: binding; conditions: monomer and aggregated forms, in Ca2+ or EGTA
T2 construct: GST (N); made in house; host or cells: E. coli ER2507
Description: S100A4 and annexin II proteins, both at the concentrations of 1.5 mg/ml, were pre-incubated overnight at 37° C. in TBS containing either 5 mM CaCl2, or 5 mM EGTA.
The formation of the S100A4-annexin II complex was analyzed by immunoprecipitation with an anti-S100A4 rabbit polyclonal antibody. To this end, the reaction mixture was incubated with the antibody (10 μg/ml) for 1 h at 37° C. and then precipitated by adding protein G-sepharose beads (Affi-Gel; Bio-Rad Laboratories, Hercules, Calif.) and incubating the resulted mixture for 1 h at room temperature. After that the beads were washed 3 times by 500 ul of TBS, boiled in Laemmli sample buffer for 5 min, and then loaded on SDS-PAAG. The proteins were then electro-transferred to a nitrocellulose membrane. The Western blot analysis was performed using anti-Annexin II antibody (BD Pharmingen) used at 1:5000 dilution and sheep anti-mouse antibody conjugated to horseradish peroxidase (Amersham Pharmacia Biotech, Piscataway, N.J.) used at 1:10000 dilution, followed visualization of the Annexin II bands by chemiluminescence.
However, the complex formation is more efficient in the case when the aggregated S100A4 are used. Additionally, the interaction between S100A4 (both monomer and oligomer) and annexin II is more efficient in the absence of Ca2+ (EGTA conditions) compared to that observed in the presence of Ca2+.

[2] = Ca (5 mM CaCl2), with or without 2.5 μM S100A4

T1 sequence (P00750 36-562): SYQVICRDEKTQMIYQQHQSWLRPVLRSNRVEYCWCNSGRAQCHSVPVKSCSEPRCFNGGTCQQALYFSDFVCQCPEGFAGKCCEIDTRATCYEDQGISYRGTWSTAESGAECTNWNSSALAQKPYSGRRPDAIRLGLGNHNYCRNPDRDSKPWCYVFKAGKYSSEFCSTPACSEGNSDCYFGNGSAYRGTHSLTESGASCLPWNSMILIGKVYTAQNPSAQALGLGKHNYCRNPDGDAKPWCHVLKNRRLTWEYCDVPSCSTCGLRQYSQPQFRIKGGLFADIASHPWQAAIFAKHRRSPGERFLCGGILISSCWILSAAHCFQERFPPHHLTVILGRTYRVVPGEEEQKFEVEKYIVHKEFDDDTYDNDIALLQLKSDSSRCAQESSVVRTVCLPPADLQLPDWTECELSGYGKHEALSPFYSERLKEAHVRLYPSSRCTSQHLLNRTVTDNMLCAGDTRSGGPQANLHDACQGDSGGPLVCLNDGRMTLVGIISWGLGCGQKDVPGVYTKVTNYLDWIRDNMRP
T2 sequence (P07355 2-339 V98L): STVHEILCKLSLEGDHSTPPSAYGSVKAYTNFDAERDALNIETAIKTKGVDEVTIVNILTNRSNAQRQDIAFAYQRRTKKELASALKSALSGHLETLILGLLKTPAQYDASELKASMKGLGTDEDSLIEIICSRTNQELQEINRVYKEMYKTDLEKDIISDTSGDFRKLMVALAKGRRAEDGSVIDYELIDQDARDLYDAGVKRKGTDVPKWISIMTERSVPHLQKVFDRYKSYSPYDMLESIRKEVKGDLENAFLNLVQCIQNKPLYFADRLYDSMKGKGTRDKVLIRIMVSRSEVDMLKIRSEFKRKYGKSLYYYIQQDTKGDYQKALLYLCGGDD
T2 sequence (P26447 whole entry partner): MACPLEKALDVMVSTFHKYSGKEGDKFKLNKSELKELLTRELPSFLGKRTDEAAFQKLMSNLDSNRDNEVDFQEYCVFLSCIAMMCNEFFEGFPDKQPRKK

In the case of “S100A4: recombinant human S100A4 protein cloned from human placenta total RNA, Ca-binding protein of S100 family”, the “increase of initial rate of plasmin generation” value ([1]; 2.5 μM S100A4 versus t-PA alone) was “more than 3 fold”, the “Slope (initial rate of plasmin generation)” value [1, 2] was 0.250 ΔA405/t^2(min^2) * 1000 and the “Time to Vmax” value [1, 2] was 1440 s. For the same substance, the “complex formation with annexin II” value (annexin II) was “capable of complex formation with annexin II”.
